Results on one substance are retold here after patent publication US20210138058A1.

The assay deals with human TLR5 (HEK-Blue hTLR5 reporter cells) (human) (UniProt O60602). Description: cell-based or functional assay.
Chain of UniProt O60602 (O60602 21-858): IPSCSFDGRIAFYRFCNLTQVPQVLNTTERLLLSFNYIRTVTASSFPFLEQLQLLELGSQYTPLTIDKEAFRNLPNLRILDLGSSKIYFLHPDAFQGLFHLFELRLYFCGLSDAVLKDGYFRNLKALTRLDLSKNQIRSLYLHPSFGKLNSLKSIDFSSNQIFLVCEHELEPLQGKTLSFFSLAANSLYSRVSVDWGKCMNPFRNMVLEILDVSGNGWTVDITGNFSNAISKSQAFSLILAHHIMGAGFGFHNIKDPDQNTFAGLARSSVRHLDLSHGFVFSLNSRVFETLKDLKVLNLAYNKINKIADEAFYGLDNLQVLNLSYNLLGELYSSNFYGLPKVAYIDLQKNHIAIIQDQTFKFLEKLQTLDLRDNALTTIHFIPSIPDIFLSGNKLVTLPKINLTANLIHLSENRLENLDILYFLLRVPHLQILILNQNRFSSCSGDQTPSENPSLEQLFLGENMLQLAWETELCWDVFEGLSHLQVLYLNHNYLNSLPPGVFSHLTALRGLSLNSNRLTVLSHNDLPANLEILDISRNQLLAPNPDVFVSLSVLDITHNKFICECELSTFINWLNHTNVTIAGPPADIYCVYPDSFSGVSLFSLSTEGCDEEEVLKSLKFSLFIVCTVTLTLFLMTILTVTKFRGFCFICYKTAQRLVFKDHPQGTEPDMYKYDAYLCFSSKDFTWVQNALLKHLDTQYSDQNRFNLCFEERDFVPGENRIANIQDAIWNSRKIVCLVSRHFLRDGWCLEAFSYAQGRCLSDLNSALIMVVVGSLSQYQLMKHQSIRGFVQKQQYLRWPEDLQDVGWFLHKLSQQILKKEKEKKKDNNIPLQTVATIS

Consider “Recombinant purified flagellin protein FlaAMRx0518 (Enterococcus gallinarum MRx0518 flagellin, N-terminal 6xHis tag) (ligand)”, for which the potency of TLR5 response against FlaADSM100110 (HEK-Blue hTLR5 SEAP reporter) (fold against FlaADSM100110) stood at 5.
